Measured values: US20140248666A1 (Amgen, published 2014)
Each block holds one binder with its values, some of them ahead of it.

What was measured:
[1] = target: T1, human sclerostin, mature form (signal peptide removed) (human, UniProt Q9BQB4 24-213); experiment: Biacore human sclerostin peptide epitope competition binding assay: 2 nM Mab injected over human sclerostin immobilised on a CM5 chip, alone or after preincubation with 20 nM soluble human sclerostin
T1 construct: 190 amino acid glycoprotein with four disulfide bonds (C1-C5, C2-C6, C3-C7, C4-C8); also called SOST; recombinant human sclerostin
T1 sequence: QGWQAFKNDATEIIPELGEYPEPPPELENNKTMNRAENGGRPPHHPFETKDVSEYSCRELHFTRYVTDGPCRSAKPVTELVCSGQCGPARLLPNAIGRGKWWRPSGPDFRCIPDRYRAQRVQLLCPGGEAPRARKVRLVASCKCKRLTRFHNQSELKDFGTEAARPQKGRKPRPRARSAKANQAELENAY
Description: (§1) Immobilization of mature form human sclerostin to a BIAcore sensor chip (CM5) surface was performed according to manufacturer's instructions. Briefly, carboxyl groups on the sensor chip surfaces were activated by injecting 60 μL of a mixture containing 0.2 M N-ethyl-N′-(dimethylaminopropyl) carbodiimide (EDC) and 0.05 M N-hydroxysuccinimide (NHS). Human sclerostin was diluted in 10 mM sodium acetate, pH 4.0 at a concentration of 20 μg/mL followed by injecting over the activated CM5 surface. Excess reactive groups on the surfaces were deactivated by injecting 60 μL of 1M ethanolamine. Final immobilized levels were ˜5000 resonance units (RU) for the human sclerostin surface. A blank, mock-coupled reference surface was also prepared on the sensor chips.

[2] = target: T2, human sclerostin tryptic peptide T19.2 (Interchain disulfide C2-C6 (Cys71-Cys125 of SEQ ID NO:1): chain 1 pos 7 to chain 2 pos 5.); experiment: Biacore human sclerostin peptide epitope competition binding assay: 2 nM Mab preincubated with 20 nM peptide in solution, then injected over immobilised human sclerostin; unchanged Ru signal means the Mab did not bind the peptide
T2 construct: Two peptides linked by the C2-C6 disulfide bond
T2 peptide 1: YVTDGPCR
T2 peptide 2: VQLLCPGGEAPR
Description: as §1

[3] = target: T3, human sclerostin tryptic peptide T20.6 (human); experiment: as above
T3 chain 1: DVSEYSCRELHFTR
T3 chain 2: SAKPVTELVCSGQCGPAR
T3 chain 3: WWRPSGPDFRCIPDRYR
T3 chain 4: LVASCKCKRLTR
Description: as §1

[4] = target: T4, human sclerostin AspN peptide AspN18.6 (FIG. 12 labels it '(Glycopeptide)'. The glycan site is not stated. The only N-X-T sequon is NKT, so the glycosylated residue is probably Asn at chain 1 pos 22, written N.); experiment: as above
T4 peptide: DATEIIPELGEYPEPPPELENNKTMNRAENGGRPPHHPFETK
Description: as §1

[5] = target: T3, human sclerostin tryptic peptide T20.6; experiment: Biacore human sclerostin peptide epitope competition binding assay: 2 nM Mab preincubated with 20 nM peptide in solution, then injected over immobilised human sclerostin; loss of Ru signal means the Mab bound the peptide
Description: as §1

[6] = target: T1, human sclerostin, mature form (signal …); experiment: Biacore cross-blocking, human sclerostin on CM5 chip; mixed with competitor Ab-19, each 1.3 uM binding sites
Description: (§2) Human sclerostin was coupled to a CM5 Biacore chip using standard amine coupling chemistry to generate a sclerostin coated surface. 300 resonance units of sclerostin were coupled to the surface.
(§3) The antibodies to be tested were diluted to a concentration of 200 ug/ml in HBS-EP buffer (being 10 mM HEPES pH 7.4, 150 mM NaCl, 3 mM EDTA, 0.005% (v/v) Surfactant P20) and then mixed in a one to one molar ratio (on a binding site basis) to generate the test mixture. This test mixture thus contained each antibody at a concentration of 100 ug/ml (1.3 um on a binding site basis). Separate solutions containing each of the antibodies in the test mix alone were also prepared. These solutions contained the individual antibodies in HBS-EP buffer at a concentration of 100 ug/ml (1.3 um on a binding site basis).
(§4) 20 μL of the test mixture was passed over the sclerostin-coated chip at a flow rate of 10 μL/min and the amount of binding recorded. The chip was then treated with two 60 second pulses of 30 mM HCl to remove all of the bound antibody. A solution containing only one of the antibodies of the test mixture (at 1.3 μM in the same buffer as the test mixture on a binding site basis) was then passed over the chip in the same manner as the test mixture and the amount of binding recorded. The chip was again treated to remove all of the bound antibody and finally a solution containing the other antibody from the test mixture alone (at 1.3 μM in the same buffer as the test mixture on a binding site basis) was passed over the chip and the amount of binding recorded.

[7] = target: T1, human sclerostin, mature form (signal …); experiment: Biacore cross-blocking, human sclerostin on CM5 chip; mixed with competitor Ab-13, each 1.3 uM binding sites
Description: as §2, §3, §4

[8] = target: T1, human sclerostin, mature form (signal …); experiment: Biacore cross-blocking on human sclerostin; mixture with competitor Ab-19, mean RU against the sum of each alone
Description: as §2, §3, §4

[9] = target: T1, human sclerostin, mature form (signal …); experiment: Biacore cross-blocking, human sclerostin on CM5 chip; mixed with competitor Ab-4, each 1.3 uM binding sites
Description: as §2, §4
(§5) The table below show the results from cross-blocking assays on a range of different antibodies. The values in each square of the table represent the amount of binding (in RU) seen when the antibodies (at 1.3 μM on a binding site basis) or buffer indicated in the top row of the table were mixed with the antibodies (at 1.3 uM on a binding site basis) or buffer indicated in the first column of the table.

[10] = target: T1, human sclerostin, mature form (signal …); experiment: Biacore cross-blocking, human sclerostin on CM5 chip; mixed with competitor Ab-3, each 1.3 uM binding sites
Description: as §2, §4, §5

[11] = target: T1, human sclerostin, mature form (signal …); experiment: Biacore cross-blocking on human sclerostin; mixture with competitor Ab-3, mean RU against the sum of each alone
Description: as §2, §3, §4

binding result [1]: binds | binding result [2]: no binding (tested: 20 nM) | binding result [3]: no binding (tested: 20 nM) | binding result [4]: no binding (tested: 20 nM)
B1: Antibody B (antibody, mouse IgG1, kappa, V domains shown)
VH: QVTLKESGPGILQPSQTLSLTCSFSGFSLSTSGMGVGWIRHPSGKNLEWLAHIWWDDVKRYNPVLKSRLTISKDTSNSQVFLKIANVDTADTATYYCARIEDFDYDEEYYAMDYWGQGTSVIVSS
VL: QIVLTQSPTIVSASPGEKVTLICSASSSVSFVDWFQQKPGTSPKRWIYRTSNLGFGVPARFSGGGSGTSHSLTISRMEAEDAATYYCQQRSTYPPTFGAGTKLELKR
notes: Mouse antibody; mature chains; also called Ab-B; Mab-B

binding result [1]: binds | binding result [5]: binds | binding result [2]: no binding (tested: 20 nM) | binding result [4]: no binding (tested: 20 nM)
B2: Antibody D (antibody, mouse IgG1, kappa, V domains shown)
VH: EVQLQQSGPELVTPGASVKISCKASGYTFTDHYMSWVKQSHGKSLEWIGDINPYSGETTYNQKFKGTATLTVDKSSSIAYMEIRGLTSEDSAVYYCARDDYDASPFAYWGQGTLVTVSA
VL: DVQMIQSPSSLSASLGDIVTMTCQASQGTSINLNWFQQKPGKAPKLLIYGSSNLEDGVPSRFSGSRYGTDFTLTISSLEDEDLATYFCLQHSYLPYTFGGGTKLEIKR
notes: Mouse antibody; mature chains; also called Ab-D; Mab-D

amount of binding (RU) [6]: 868 RU | amount of binding (RU) [7]: 1080 RU | percentage of the theoretical binding [8]: 65% | binding result [2]: no binding (tested: 20 nM) | binding result [3]: no binding (tested: 20 nM) | binding result [4]: no binding (tested: 20 nM) | amount of binding (RU) [9]: 833 RU | amount of binding (RU) [10]: 946 RU | percentage of the theoretical binding [11]: 93.5%
B3: Antibody A (antibody, mouse IgG1, kappa, V domains shown)
VH: QSLEESGGRLVTPGTPLTLTCTASGFSLSSYWMNWVRQAPGEGLEWIGTIDSGGRTDYASWAKGRFTISRTSTTMDLKMTSLTTGDTARYFCARNWNLWGQGTLVTVSS
VL: AQVLTQTPASVSAAVGGTVTINCQSSQSVYDNNWLAWFQQKPGQPPKLLIYDASDLASGVPSRFSGSGSGTQFTLTISGVQCADAATYYCQGAYNDVIYAFGGGTEVVVKR
notes: Rabbit-mouse chimeric antibody; mature chains (signal peptides cleaved off); also called Ab-A; Mab-A

binding result [1]: binds | binding result [5]: binds | binding result [2]: no binding (tested: 20 nM) | binding result [4]: no binding (tested: 20 nM)
B4: Antibody C (antibody, mouse IgG1, kappa, V domains shown)
VH: EVQLQQSGPELVKPGTSVKMSCKASGYTFTDCYMNWVKQSHGKSLEWIGDINPFNGGTTYNQKFKGKATLTVDKSSSTAYMQLNSLTSDDSAVYYCARSHYYFDGRVPWDAMDYWGQGTSVTVSS
VL: DIVLTQSPASLTVSLGLRATISCKASQSVDYDGDSYMNWYQQKPGQPPKLLIYAASNLESGIPARFSGNGSGTDFTLNIHPVEEEDAVTYYCQQSNEDPWTFGGGTKLEIKR
notes: Mouse antibody; mature chains; also called Ab-C; Mab-C
